Reference: publication PMC4486954, “Highly homologous proteins exert opposite biological activities by using different interaction interfaces” (Scientific Reports, 2015)
Each block holds one molecule with its values, some of them ahead of it. No end group written: not given here.

What was measured:
[1] = biological target: iASPP 616-623 peptide 616-623 (Homo sapiens) (UniProt Q8WUF5); assay: ITC; conditions: cited from earlier work
iASPP Ank-SH3 [2] = biological target: T1, iASPP Ank-SH3 (Homo sapiens, UniProt Q8WUF5); assay: Fluorescence anisotropy binding of fluorescein-labeled iASPP Pro derived peptides to iASPP Ank-SH3; conditions: 250 μM iASPP Ank-SH3 titrated into 100 nM fluorescein-labeled peptide, 10 °C, 20 mM Hepes pH 7.3, ionic strength 50 mM
T1 construct: (2) iASPP Ank-SH3 603-828; HLT tag (His tag + lipoyl domain + TEV site) (N, cleaved yes); made in house; host or cells: E. coli HMS 174 (Novagen)
T1 sequence (Q8WUF5 603-828): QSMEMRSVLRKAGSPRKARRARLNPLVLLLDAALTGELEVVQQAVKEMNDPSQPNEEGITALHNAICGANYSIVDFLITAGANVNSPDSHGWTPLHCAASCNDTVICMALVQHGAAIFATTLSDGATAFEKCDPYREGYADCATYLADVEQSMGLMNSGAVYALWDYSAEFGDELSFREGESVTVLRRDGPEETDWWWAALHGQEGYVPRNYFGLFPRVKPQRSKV
Protocol: Binding of the iASPP Pro-derived peptides to iASPP Ank-SH3 was measured by fluorescence anisotropy using a PerkinElmer Life Sciences LS-50b spectrofluorimeter equipped with a Hamilton microlab M dispenser. Titration of iASPP Ank-SH3 into iASPP Pro derived fluorescein-labeled (FL) peptides was performed at 10 °C in 20 mM Hepes buffer, pH 7.3, 43 mM NaCl (total ionic strength = 50 mM), 10% glycerol and 5 mM β-mercaptoethanol. The excitation wavelength was set at 480 nm and the emission measured at 530 nm. The labeled peptide, dissolved in 1 ml buffer to a final concentration of 100 nM, was placed in the cuvette. 250 μM iASPP Ank-SH3 was placed in the dispenser and aliquots of 10–20 μl were added at 1.5 min intervals. The solution was then stirred for 30 sec, and the fluorescence and anisotropy were measured. Data were analyzed using the program Origin8 (OriginLab) and were fit to 1:1 binding model:
[drawing 1] (R- measured fluorescence anisotropy, R0- anisotropy value corresponding to the free peptide, ∆R- amplitude of the fluorescence anisotropy change, [Protein]- protein concentration, Kd- dissociation constant).

HLT-iASPP Ank-SH3 = assay: Peptide array screening: HLT-iASPP Ank-SH3 binding to array of iASPP Pro derived peptides; set-up: species or system human; conditions: CelluSpots array, N-acetylated 15-residue peptides on cellulose; 5 μM protein, 4 °C overnight; IS = 150 mM, pH 7.0; anti His HRP, chemiluminescence
Protocol: (§1) The CelluSpots^TM peptide micro-arrays were synthesized by INTAVIS Bioanalytical Instruments AG, Köln, Germany. The 15 residue peptides were acetylated at their N-termini and attached to a cellulose membrane via their C termini through an amide bond. For screening the binding of the array to HLT-iASPP Ank-SH3 the array was first washed for 4 h at room temperature with 50 mM Tris-HCl pH = 8 at an ionic strength (IS) of 150 mM adjusted by NaCl, 0.05% Tween20 and 2.5% (W/V) skimmed milk (buffer D) for blocking unspecific binding. HLT-iASPP Ank-SH3 was dissolved in 20 mM Phosphate buffer pH = 7.0 IS = 150 mM, 5 mM βME, 10% glycerol and 0.02% NaN3 and 2.5% skimmed milk. 5 ml of 5 μM of the protein were incubated with the arrays at 4 °C with shaking overnight. After three washes with TBST, the array was incubated with anti His HRP conjugated antibody at room temperature for 1 hour. The antibody was dissolved in buffer D. Then the array was washed again three times with TBST. Immunodetection was performed using chemiluminiscence (ECL reagents). Peptide array screening for binding HLT-iASPP Pro was also preformed as above with change of the proteins buffer. HLT-iASPP Pro was dissolved in 50 mM Phosphate buffer pH = 7.0, 10% glycerol, 0.02% NaN3, 0.001% Tween 20, IS = 150 mM and 2.5% skimmed milk.

HLT-iASPP Pro [3] = assay: Peptide array screening: HLT-iASPP Pro binding to array of iASPP Ank-SH3 derived peptides; set-up: species or system human; conditions: CelluSpots array, N-acetylated 15-residue peptides on cellulose; 50 mM Phosphate pH 7.0, IS = 150 mM; anti His HRP, chemiluminescence
Protocol: as §1

HLT-iASPP Pro [4] = biological target: T2, HLT-iASPP Pro (human, UniProt Q8WUF5 1-602); assay: peptide or protein array; CelluSpots array of 24 partly overlapping 15-residue iASPP Ank-SH3 peptides on cellulose; HLT-iASPP Pro in 50 mM phosphate pH 7.0, 10% glycerol, 0.001% Tween 20, ionic strength 150 mM, 2.5% skimmed milk; detected with anti His HRP antibody; conditions: both partners purified
T2 construct: iASPP (human), proline rich (Pro) domain, residues 1-602 of the 828-residue protein, Swiss-Prot Q8WUF5; Cloned EcoRI/NotI into pHis parallel 2HLT; calculated Mw with tag 75.9 kDa; also called iASPP Pro 1-602; iASPP 1-602; source: E. coli Rosetta2, purified (Nickel Sepharose, size exclusion chromatography); not shown: HLT (His tag, lipoyl domain, TEV protease cleavage site), N-terminal, kept
T2 sequence (looked up): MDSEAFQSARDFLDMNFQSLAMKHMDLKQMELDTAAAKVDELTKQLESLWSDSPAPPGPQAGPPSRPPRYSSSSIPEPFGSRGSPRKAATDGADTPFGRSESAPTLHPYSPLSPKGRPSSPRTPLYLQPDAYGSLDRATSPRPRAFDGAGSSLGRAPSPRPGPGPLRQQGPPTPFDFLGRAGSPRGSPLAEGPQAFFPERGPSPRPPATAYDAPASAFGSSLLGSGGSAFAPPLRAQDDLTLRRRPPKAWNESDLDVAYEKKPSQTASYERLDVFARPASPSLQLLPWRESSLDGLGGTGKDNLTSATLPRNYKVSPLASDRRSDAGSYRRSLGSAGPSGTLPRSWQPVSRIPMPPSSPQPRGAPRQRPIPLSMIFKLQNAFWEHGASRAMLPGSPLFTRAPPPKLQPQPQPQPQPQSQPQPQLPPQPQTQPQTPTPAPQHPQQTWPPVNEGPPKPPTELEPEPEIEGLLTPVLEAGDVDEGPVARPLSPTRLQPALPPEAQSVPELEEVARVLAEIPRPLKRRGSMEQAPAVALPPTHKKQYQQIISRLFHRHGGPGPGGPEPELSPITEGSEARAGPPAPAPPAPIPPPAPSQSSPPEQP

iASPP Ank-SH3 [5] = biological target: T1, iASPP Ank-SH3; conditions: cited from earlier work
Excerpt: iASPP 1-478 and specifically iASPP 1-240 but not iASPP 249-482 were previously shown to bind iASPP Ank-SH3 in a pull down assay. We further mapped this interaction using peptide arrays and identified the exact regions in iASPP Pro that bind iASPP Ank-SH3.

iASPP Ank-SH3 [6] = biological target: T3, iASPP Ank-SH3 (human, UniProt Q8WUF5 603-828); assay: fluorescence polarisation; fluorescence anisotropy; 250 uM iASPP Ank-SH3 titrated into 100 nM fluorescein-labeled peptide; 10 °C; 20 mM Hepes pH 7.3, 43 mM NaCl (ionic strength 50 mM), 10% glycerol, 5 mM β-mercaptoethanol; fit to a 1:1 model; conditions: both partners purified
T3 construct: iASPP (human), four ankyrin repeats and SH3 domain, residues 603-828, Swiss-Prot Q8WUF5; also called iASPP Ank-SH3 603-828; cleaved iASPP Ank-SH3; source: E. coli HMS 174, purified (Nickel Sepharose, TEV cleavage, second Nickel column, size exclusion chromatography); not shown: HLT (His tag, lipoyl domain, TEV protease cleavage site), N-terminal, cleaved
T3 sequence (looked up): T1 sequence (Q8WUF5 603-828)

Molecule: iASPP Ank-SH3 (from UniProt Q8WUF5)
- Kd [1]: 45 µM

Molecule: iASPP 83-90: iASPP Pro derived peptide that includes the iASPP phosphorylation site S84 (GSPRKAAT; UniProt Q8WUF5 83-90, looked up, fragment)
- binding to iASPP Ank-SH3 (in words) (iASPP Ank-SH3 [2]): did not bind
- binding of HLT-iASPP Ank-SH3 to the peptide in the array (HLT-iASPP Ank-SH3): did not bind

B1: iASPP Ank-SH3 array peptide 764-778 (spot E19) (peptide)
peptide: Ac-YALWDYSAEFGDELS-{cellulose membrane (amide bond)}
modifications: also: C-terminus bound to cellulose membrane via amide
notes: source: synthetic peptide on CelluSpots array (INTAVIS)
- binding result (HLT-iASPP Pro [4]): binds

B2: iASPP Ank-SH3 array peptide 800-814 (spot E23) (peptide)
peptide: Ac-WAALHGQEGYVPRNY-{cellulose membrane (amide bond)}
modifications: also: C-terminus bound to cellulose membrane via amide
notes: iASPP (human) residues 800-814; also called iASPP 800-814; source: synthetic peptide on CelluSpots array (INTAVIS)
- binding result (HLT-iASPP Pro [4]): binds

B3: iASPP 1-240: iASPP fragment 1-240 of a previous pull down assay (protein, UniProt Q8WUF5 1-240, looked up, fragment)
chain: MDSEAFQSARDFLDMNFQSLAMKHMDLKQMELDTAAAKVDELTKQLESLWSDSPAPPGPQAGPPSRPPRYSSSSIPEPFGSRGSPRKAATDGADTPFGRSESAPTLHPYSPLSPKGRPSSPRTPLYLQPDAYGSLDRATSPRPRAFDGAGSSLGRAPSPRPGPGPLRQQGPPTPFDFLGRAGSPRGSPLAEGPQAFFPERGPSPRPPATAYDAPASAFGSSLLGSGGSAFAPPLRAQDDL
- binding to iASPP Ank-SH3 in pull down assay (iASPP Ank-SH3 [5]): bind

B4: fluorescein labeled iASPP 60-74 (peptide)
chain: {5(6)‑carboxyfluorescein}-QAGPPSRPPRYSSSS
- Kd (iASPP Ank-SH3 [6]): 35 ± 2 µM

B5: iASPP 1-478: iASPP fragment 1-478 of a previous pull down assay (protein, UniProt Q8WUF5 1-478, looked up, fragment)
chain: MDSEAFQSARDFLDMNFQSLAMKHMDLKQMELDTAAAKVDELTKQLESLWSDSPAPPGPQAGPPSRPPRYSSSSIPEPFGSRGSPRKAATDGADTPFGRSESAPTLHPYSPLSPKGRPSSPRTPLYLQPDAYGSLDRATSPRPRAFDGAGSSLGRAPSPRPGPGPLRQQGPPTPFDFLGRAGSPRGSPLAEGPQAFFPERGPSPRPPATAYDAPASAFGSSLLGSGGSAFAPPLRAQDDLTLRRRPPKAWNESDLDVAYEKKPSQTASYERLDVFARPASPSLQLLPWRESSLDGLGGTGKDNLTSATLPRNYKVSPLASDRRSDAGSYRRSLGSAGPSGTLPRSWQPVSRIPMPPSSPQPRGAPRQRPIPLSMIFKLQNAFWEHGASRAMLPGSPLFTRAPPPKLQPQPQPQPQPQSQPQPQLPPQPQTQPQTPTPAPQHPQQTWPPVNEGPPKPPTELEPEPEIEGLLTPVLEAGD
- binding to iASPP Ank-SH3 in pull down assay (iASPP Ank-SH3 [5]): bind

B6: iASPP Ank-SH3 array peptide 739-753 (spot E16) (peptide)
peptide: Ac-EGYADCATYLADVEQ-{cellulose membrane (amide bond)}
modifications: also: C-terminus bound to cellulose membrane via amide
notes: as for B1
- binding result (HLT-iASPP Pro [4]): binds

B7: iASPP 249-482: iASPP fragment 249-482 of a previous pull down assay (protein, UniProt Q8WUF5 249-482, looked up, fragment)
chain: AWNESDLDVAYEKKPSQTASYERLDVFARPASPSLQLLPWRESSLDGLGGTGKDNLTSATLPRNYKVSPLASDRRSDAGSYRRSLGSAGPSGTLPRSWQPVSRIPMPPSSPQPRGAPRQRPIPLSMIFKLQNAFWEHGASRAMLPGSPLFTRAPPPKLQPQPQPQPQPQSQPQPQLPPQPQTQPQTPTPAPQHPQQTWPPVNEGPPKPPTELEPEPEIEGLLTPVLEAGDVDEG
- binding to iASPP Ank-SH3 in pull down assay (iASPP Ank-SH3 [5]): not

B8: fluorescein labeled iASPP 540-562 (peptide)
chain: {5(6)‑carboxyfluorescein}-KKQYQQIISRLFHRHGGPGPGGP
- Kd (iASPP Ank-SH3 [6]): 34 ± 2 µM

Other lines, results leading:

- binding of HLT-iASPP Pro to the peptide in the array (HLT-iASPP Pro [3]): bound
Molecule: EGYADCATYLADVEQ [iASPP 739-753, array peptide, iASPP Ank-SH3 residues 739-753, fourth ankyrin repeat]

- binding of HLT-iASPP Pro to the peptide in the array (HLT-iASPP Pro [3]): bound
Molecule: YALWDYSAEFGDELS [iASPP 764-778, array peptide, iASPP Ank-SH3 residues 764-778, RT loop]

- binding of HLT-iASPP Ank-SH3 to the peptide in the array (HLT-iASPP Ank-SH3): bound
Molecule: SMEMRSVLRKAGSPR [iASPP 604-618, array peptide, iASPP residues 604-618]

- binding of HLT-iASPP Pro to the peptide in the array (HLT-iASPP Pro [3]): bound
Molecule: WAALHGQEGYVPRNY [iASPP 800-814, array peptide, iASPP Ank-SH3 residues 800-814]
